The results in this text go back to patent publication US20140294898A1 (published 2014).

The chains are these.
B1: Compound No. 69 (peptide)
peptide: FANPHLGWSWFXRCG
HELM: PEPTIDE1{[O=C(C[*:3])[*:2]].F.[meA].N.P.H.L.[Sar].W.S.W.F.[CCCC[C@@H](C(=O)[*:2])N(C)[*:1]].R.C.G.[am]}$PEPTIDE1,PEPTIDE1,1:R3-15:R3$$$V2.0
SMILES: CCCC[C@H]1C(=O)N[C@@H](CCCNC(=N)N)C(=O)N[C@H](C(=O)NCC(N)=O)CSCC(=O)N[C@@H](Cc2ccccc2)C(=O)N(C)[C@@H](C)C(=O)N[C@@H](CC(N)=O)C(=O)N2CCC[C@H]2C(=O)N[C@@H](Cc2c[nH]cn2)C(=O)N[C@@H](CC(C)C)C(=O)N(C)CC(=O)N[C@@H](Cc2c[nH]c3ccccc23)C(=O)N[C@@H](CO)C(=O)N[C@@H](Cc2c[nH]c3ccccc23)C(=O)N[C@@H](Cc2ccccc2)C(=O)N1C
notes: macrocyclic peptide, Formula I series; Phe at 11 is not N-methylated; also called Compound 69
B2: Compound No. 38 (peptide)
peptide: {CH2CO}-[3Pal][NMeA]NPHL[Sar]WSW[NMeNle][NMeNle]RCG-NH2
modifications: thioether N-14
SMILES: CCCC[C@H]1C(=O)N(C)[C@@H](CCCC)C(=O)N[C@@H](CCCNC(=N)N)C(=O)N[C@H](C(=O)NCC(N)=O)CSCC(=O)N[C@@H](Cc2cccnc2)C(=O)N(C)[C@@H](C)C(=O)N[C@@H](CC(N)=O)C(=O)N2CCC[C@H]2C(=O)N[C@@H](Cc2c[nH]cn2)C(=O)N[C@@H](CC(C)C)C(=O)N(C)CC(=O)N[C@@H](Cc2c[nH]c3ccccc23)C(=O)N[C@@H](CO)C(=O)N[C@@H](Cc2c[nH]c3ccccc23)C(=O)N1C
notes: macrocyclic peptide, Formula I series; also called Compound 38
B3: Compound No. 39 (peptide)
peptide: {CH2CO}-[4Pal][NMeA]NPHL[Sar]WSW[NMeNle][NMeNle]RCG-NH2
modifications: thioether N-14
SMILES: CCCC[C@H]1C(=O)N(C)[C@@H](CCCC)C(=O)N[C@@H](CCCNC(=N)N)C(=O)N[C@H](C(=O)NCC(N)=O)CSCC(=O)N[C@@H](Cc2ccncc2)C(=O)N(C)[C@@H](C)C(=O)N[C@@H](CC(N)=O)C(=O)N2CCC[C@H]2C(=O)N[C@@H](Cc2c[nH]cn2)C(=O)N[C@@H](CC(C)C)C(=O)N(C)CC(=O)N[C@@H](Cc2c[nH]c3ccccc23)C(=O)N[C@@H](CO)C(=O)N[C@@H](Cc2c[nH]c3ccccc23)C(=O)N1C
notes: macrocyclic peptide, Formula I series; also called Compound 39
B4: Compound No. 52 (peptide)
peptide: FANPHLXWSWXXRCG
modifications: ClAc on N-terminus cyclized as thioether with Cys14; mAla (N-methyl-Ala) at 2; Dab (2,4-diaminobutyric acid, written X) at 7; mNle (N-methyl-norleucine, written X) at 11 and 12; C-terminal NH2
notes: macrocyclic peptide, Formula I series; also called Compound 52
B5: Compound No. 33 (peptide)
peptide: {CH2CO}-[Phe(4-Cl)][NMeA]NPHL[Sar]WSW[NMeNle][NMeNle]RCG-NH2
modifications: thioether N-14
SMILES: CCCC[C@H]1C(=O)N(C)[C@@H](CCCC)C(=O)N[C@@H](CCCNC(=N)N)C(=O)N[C@H](C(=O)NCC(N)=O)CSCC(=O)N[C@@H](Cc2ccc(Cl)cc2)C(=O)N(C)[C@@H](C)C(=O)N[C@@H](CC(N)=O)C(=O)N2CCC[C@H]2C(=O)N[C@@H](Cc2c[nH]cn2)C(=O)N[C@@H](CC(C)C)C(=O)N(C)CC(=O)N[C@@H](Cc2c[nH]c3ccccc23)C(=O)N[C@@H](CO)C(=O)N[C@@H](Cc2c[nH]c3ccccc23)C(=O)N1C
notes: macrocyclic peptide, Formula I series; also called Compound 33
B6: Compound No. 34 (peptide)
peptide: {CH2CO}-[Phe(4-Br)][NMeA]NPHL[Sar]WSW[NMeNle][NMeNle]RCG-NH2
modifications: thioether N-14
SMILES: CCCC[C@H]1C(=O)N(C)[C@@H](CCCC)C(=O)N[C@@H](CCCNC(=N)N)C(=O)N[C@H](C(=O)NCC(N)=O)CSCC(=O)N[C@@H](Cc2ccc(Br)cc2)C(=O)N(C)[C@@H](C)C(=O)N[C@@H](CC(N)=O)C(=O)N2CCC[C@H]2C(=O)N[C@@H](Cc2c[nH]cn2)C(=O)N[C@@H](CC(C)C)C(=O)N(C)CC(=O)N[C@@H](Cc2c[nH]c3ccccc23)C(=O)N[C@@H](CO)C(=O)N[C@@H](Cc2c[nH]c3ccccc23)C(=O)N1C
notes: macrocyclic peptide, Formula I series; also called Compound 34
B7: Compound No. 37 (peptide)
peptide: {CH2CO}-[Phe(4-tBu)][NMeA]NPHL[Sar]WSW[NMeNle][NMeNle]RCG-NH2
modifications: thioether N-14
SMILES: CCCC[C@H]1C(=O)N(C)[C@@H](CCCC)C(=O)N[C@@H](CCCNC(=N)N)C(=O)N[C@H](C(=O)NCC(N)=O)CSCC(=O)N[C@@H](Cc2ccc(C(C)(C)C)cc2)C(=O)N(C)[C@@H](C)C(=O)N[C@@H](CC(N)=O)C(=O)N2CCC[C@H]2C(=O)N[C@@H](Cc2c[nH]cn2)C(=O)N[C@@H](CC(C)C)C(=O)N(C)CC(=O)N[C@@H](Cc2c[nH]c3ccccc23)C(=O)N[C@@H](CO)C(=O)N[C@@H](Cc2c[nH]c3ccccc23)C(=O)N1C
notes: macrocyclic peptide, Formula I series; also called Compound 37
B8: Compound No. 40 (peptide)
peptide: {CH2CO}-[3Thi][NMeA]NPHL[Sar]WSW[NMeNle][NMeNle]RCG-NH2
modifications: thioether N-14
SMILES: CCCC[C@H]1C(=O)N(C)[C@@H](CCCC)C(=O)N[C@@H](CCCNC(=N)N)C(=O)N[C@H](C(=O)NCC(N)=O)CSCC(=O)N[C@@H](Cc2ccsc2)C(=O)N(C)[C@@H](C)C(=O)N[C@@H](CC(N)=O)C(=O)N2CCC[C@H]2C(=O)N[C@@H](Cc2c[nH]cn2)C(=O)N[C@@H](CC(C)C)C(=O)N(C)CC(=O)N[C@@H](Cc2c[nH]c3ccccc23)C(=O)N[C@@H](CO)C(=O)N[C@@H](Cc2c[nH]c3ccccc23)C(=O)N1C
notes: macrocyclic peptide, Formula I series; also called Compound 40
B9: Compound No. 70 (peptide)
peptide: {CH2CO}-F[NMeA]NPHL[Sar]WSW[dNle][NMeNle]RCG-NH2
modifications: thioether N-14
SMILES: CCCC[C@H]1NC(=O)[C@H](Cc2c[nH]c3ccccc23)NC(=O)[C@H](CO)NC(=O)[C@H](Cc2c[nH]c3ccccc23)NC(=O)CN(C)C(=O)[C@H](CC(C)C)NC(=O)[C@H](Cc2c[nH]cn2)NC(=O)[C@@H]2CCCN2C(=O)[C@H](CC(N)=O)NC(=O)[C@H](C)N(C)C(=O)[C@H](Cc2ccccc2)NC(=O)CSC[C@@H](C(=O)NCC(N)=O)NC(=O)[C@H](CCCNC(=N)N)NC(=O)[C@H](CCCC)N(C)C1=O
notes: macrocyclic peptide cyclized via the ClAc moiety with the downstream cysteine
B10: Compound No. 53 (peptide)
peptide: {CH2CO}-F[NMeA]NPHLHWSW[NMeNle][NMeNle]RCG-NH2
modifications: thioether N-14
SMILES: CCCC[C@H]1C(=O)N(C)[C@@H](CCCC)C(=O)N[C@@H](CCCNC(=N)N)C(=O)N[C@H](C(=O)NCC(N)=O)CSCC(=O)N[C@@H](Cc2ccccc2)C(=O)N(C)[C@@H](C)C(=O)N[C@@H](CC(N)=O)C(=O)N2CCC[C@H]2C(=O)N[C@@H](Cc2c[nH]cn2)C(=O)N[C@@H](CC(C)C)C(=O)N[C@@H](Cc2c[nH]cn2)C(=O)N[C@@H](Cc2c[nH]c3ccccc23)C(=O)N[C@@H](CO)C(=O)N[C@@H](Cc2c[nH]c3ccccc23)C(=O)N1C
notes: as for B9
B11: Compound No. 51 (peptide)
peptide: {CH2CO}-F[NMeA]NPHD[Sar]WSW[NMeNle][NMeNle]RCG-NH2
modifications: thioether N-14
SMILES: CCCC[C@H]1C(=O)N(C)[C@@H](CCCC)C(=O)N[C@@H](CCCNC(=N)N)C(=O)N[C@H](C(=O)NCC(N)=O)CSCC(=O)N[C@@H](Cc2ccccc2)C(=O)N(C)[C@@H](C)C(=O)N[C@@H](CC(N)=O)C(=O)N2CCC[C@H]2C(=O)N[C@@H](Cc2c[nH]cn2)C(=O)N[C@@H](CC(=O)O)C(=O)N(C)CC(=O)N[C@@H](Cc2c[nH]c3ccccc23)C(=O)N[C@@H](CO)C(=O)N[C@@H](Cc2c[nH]c3ccccc23)C(=O)N1C
notes: as for B9
B12: Compound No. 55 (peptide)
peptide: {CH2CO}-F[NMeA]NPHLPWSW[NMeNle][NMeNle]RCG-NH2
modifications: thioether N-14
SMILES: CCCC[C@H]1C(=O)N(C)[C@@H](CCCC)C(=O)N[C@@H](CCCNC(=N)N)C(=O)N[C@H](C(=O)NCC(N)=O)CSCC(=O)N[C@@H](Cc2ccccc2)C(=O)N(C)[C@@H](C)C(=O)N[C@@H](CC(N)=O)C(=O)N2CCC[C@H]2C(=O)N[C@@H](Cc2c[nH]cn2)C(=O)N[C@@H](CC(C)C)C(=O)N2CCC[C@H]2C(=O)N[C@@H](Cc2c[nH]c3ccccc23)C(=O)N[C@@H](CO)C(=O)N[C@@H](Cc2c[nH]c3ccccc23)C(=O)N1C
notes: as for B9
B13: Compound No. 54 (peptide)
peptide: {CH2CO}-F[NMeA]NPHLRWSW[NMeNle][NMeNle]RCG-NH2
modifications: thioether N-14
SMILES: CCCC[C@H]1C(=O)N(C)[C@@H](CCCC)C(=O)N[C@@H](CCCNC(=N)N)C(=O)N[C@H](C(=O)NCC(N)=O)CSCC(=O)N[C@@H](Cc2ccccc2)C(=O)N(C)[C@@H](C)C(=O)N[C@@H](CC(N)=O)C(=O)N2CCC[C@H]2C(=O)N[C@@H](Cc2c[nH]cn2)C(=O)N[C@@H](CC(C)C)C(=O)N[C@@H](CCCNC(=N)N)C(=O)N[C@@H](Cc2c[nH]c3ccccc23)C(=O)N[C@@H](CO)C(=O)N[C@@H](Cc2c[nH]c3ccccc23)C(=O)N1C
notes: as for B9

Positions of bridges follow the written chain, without caps; N, C: chain ends. Non-standard residues stand in square brackets, D forms with d. Phe(4-tBu) = CC(C)(C)c1ccc(C[C@H](N)C(=O)O)cc1; Phe(4-Br) = N[C@@H](Cc1ccc(Br)cc1)C(=O)O; Phe(4-Cl) = N[C@@H](Cc1ccc(Cl)cc1)C(=O)O; 3Pal = N[C@@H](Cc1cccnc1)C(=O)O; 4Pal = N[C@@H](Cc1ccncc1)C(=O)O; 3Thi = N[C@@H](Cc1ccsc1)C(=O)O; NMeNle = CCCC[C@H](NC)C(=O)O; dNle = CCCC[C@@H](N)C(=O)O; NMeA = CN[C@@H](C)C(=O)O; Sar = CNCC(=O)O

T2 sequence (Q9NZQ7 other isoform, or with tags, fused parts or gaps limits assumed): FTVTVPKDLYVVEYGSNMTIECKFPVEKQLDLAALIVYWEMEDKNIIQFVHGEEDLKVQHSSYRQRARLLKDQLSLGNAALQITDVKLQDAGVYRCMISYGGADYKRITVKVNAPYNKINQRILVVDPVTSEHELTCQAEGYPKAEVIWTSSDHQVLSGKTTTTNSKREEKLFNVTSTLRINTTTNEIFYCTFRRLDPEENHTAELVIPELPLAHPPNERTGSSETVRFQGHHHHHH
T1 sequence (Q9NZQ7 19-239 limits assumed): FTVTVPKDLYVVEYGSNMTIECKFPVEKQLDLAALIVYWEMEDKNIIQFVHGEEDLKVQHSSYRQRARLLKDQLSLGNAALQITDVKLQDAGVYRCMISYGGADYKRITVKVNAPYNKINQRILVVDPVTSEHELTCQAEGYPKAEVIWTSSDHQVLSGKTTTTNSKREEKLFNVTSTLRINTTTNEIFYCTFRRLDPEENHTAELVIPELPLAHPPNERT

The first assay addresses T1, human PD-L1 (human, UniProt Q9NZQ7 19-239, limits assumed).
T1 construct: also called Hu PD-L1; hPD-L1
The experiment in a line: cell binding assay, inhibition of Hu PD-L1/PD-1 binding.
In the case of B1, the half-inhibitory concentration (IC50) (in general, the concentration at which inhibition is half-maximal) came to 351 nM.
Still for that read-out and setting: in the case of B2 it was 368 nM; in that of B3, 283 nM; in that of B4, 108 nM.
B5 showed an IC50 of 7 nM.
For the molecule B6, the concentration for half-maximal inhibition (IC50) was 37 nM.
Take B7: the IC50 amounted to 2520 nM.
The same measure, in the same setting: with B8 the figure was 20 nM.

The next assay concerns the target T2, hPDL1(19-239)-TVMV-His (human, UniProt Q9NZQ7 19-239).
T2 construct: The construct name says 19-239, the running text says amino acids 18-239; Expressed in HEK293T cells; also called PD-L1-His; PD-L1-TVMV-His
The experiment in a line: HTRF competition, PD-1-Ig (20 nM) binding to human PD-L1-His (10 nM). As to the method: All binding studies were performed in an HTRF assay buffer consisting of dPBS supplemented with 0.1% (w/v) bovine serum albumin and 0.05% (v/v) Tween-20. […] PD-L1 fusion proteins from either human, cynomologous macaques, or mouse were used. HTRF detection was achieved using europium crypate-labeled anti-Ig monoclonal antibody (1 nM final) and allophycocyanin (APC) labeled anti-His monoclonal antibody (20 nM final). Antibodies were diluted in HTRF detection buffer and 5 μl was dispensed on top of binding reaction. The reaction was allowed to equilibrate for 30 minutes and signal (665 nm/620 nm ratio) was obtained using an EnVision fluorometer. […]
HTRF Experiments were performed essentially as outlined supra. Variant macrocyclic peptides were created as outlined herein.
In general terms: Time-resolved FRET reads energy transfer from a long-lived donor to a nearby acceptor.
The molecule B9 had an IC50 of 8680 nM.
B10 registered an IC50 of 34 nM.
Consider B11, for which the half-inhibitory concentration (IC50) was 23 nM.
On the same count and under the same terms, in the case of B12 it was 4 nM.
Molecule B13 came in with an IC50 of 26 nM.
